Key:
[1] = biological target: Vps4_(ΔMIT, E233Q) (solution experiments) (S. cerevisiae) (UniProt P52917); assay: AUC
AUC = biological target: the molecule itself; assay: AUC

With “Vps4_(ΔMIT, E233Q) (solution experiments) (from UniProt P52917 104-437) (domain or fragment)” the stoichiometry N [1] was 2.19.

B1: full length Vps4_(E233Q) (S. cerevisiae) (enzyme, UniProt P52917 1-437, looked up)
chain: MSTGDFLTKGIELVQKAIDLDTATQYEEAYTAYYNGLDYLMLALKYEKNPKSKDLIRAKFTEYLNRAEQLKKHLESEEANAAKKSPSAGSGSNGGNKKISQEEGEDNGGEDNKKLRGALSSAILSEKPNVKWEDVAGLEGAKEALKEAVILPVKFPHLFKGNRKPTSGILLYGPPGTGKSYLAKAVATEANSTFFSVSSSDLVSKWMGESEKLVKQLFAMARENKPSIIFIDQVDALTGTRGEGESEASRRIKTELLVQMNGVGNDSQGVLVLGATNIPWQLDSAIRRRFERRIYIPLPDLAARTTMFEINVGDTPCVLTKEDYRTLGAMTEGYSGSDIAVVVKDALMQPIRKIQSATHFKDVSTEDDETRKLTPCSPGDDGAIEMSWTDIEADELKEPDLTIKDFLKAIKSTRPTVNEDDLLKQEQFTRDFGQEGN
With B1 the Kd (AUC) was under 5 µM and the “stoichiometry N” value (AUC) was 1.97.

From PMC2632936 (Journal of molecular biology, 2008)
